Results taken from patent US6335019B1, “Methods for treating sensitivity to protein allergen using peptides which include a T cell epitope recognized by a T cell receptor specific for the protein allergen” (Immulogic Pharmaceutical Corp., priority 1989, dated 2002).

Legend:
Assay type in all cases: binding
[1] = system: goat anti-Amb a I antibody; assay: Western blot of E. coli-expressed recombinant Amb a I / Amb a II with goat anti-Amb a I antibody (FIG. 19)
Protocol: Furthermore, full-length and truncated cDNAs encoding several members of the Amb a I multigene family, as well as Amb a II, were cloned in-frame into the expression vector pTrc99 (Amann et al. Gene, 69:301-315, (1988)) and transformed into the JM109 host. Expression of recombinant Amb a I and Amb a II protein was induced by 1 mM isopropyl-β-D-thiogalactopyranoside, cells were harvested, lysozyme treated, sonicated and insoluble inclusion bodies recovered by a low speed centrifugation. Recombinant Amb a I and Amb a II protein present in the recovered pellet was solubilized in buffer containing 8M urea, 50 mM Tris HC1 pH8.0, 50 mM NaCl, 1 mM EDTA, 1 mM dithiothreitol, 1 mM phenylmethylsulfonyl fluoride. After solubilization, the crude urea lysate was dialyzed at 4° C. against PBS. […] This antigenic cross-reactivity is consistent with the observed sequence homology of the cDNAs (see FIG. 16).
Isoelectric focusing was done on a Hoeffer gel apparatus with 15 μg of crude soluble pollen protein. The gel consisted of 7.5% acrylamide with 3.5% Pharmalytes pH 4.5-5.3 (Pharmacia) and 3.5% Ampholines pH 3.5-10 (LKB), run at 13W for 3.5 hours until a constant voltage was reached. The gel section was placed on a slab of 10% acrylamide SDS-PAGE and electrophoresed for 3.5 hours at 40 mA according to the protocol cited. The proteins were transferred overnight in phosphate buffer to 0.1 micron nitrocellulose (Schleicher and Schuell) at 0.2A. The blot was rinsed in blot solution (25 mM Tris-CHl pH 7.5, 0.171 M NaCl, 0.05% Tween-20; Sigma). The first antibody incubation was overnight at room temperature with a […] of goat anti-Amb a I IgC (obtained from Dr. David Marsh) in blot solution. The excess first antibody was removed with three 15 minute rinses with blot solution. The second antibody was a 1:2,500 dilution of biotinylated swine anti-goat IgG (Boehringer-Manneheim) in blot solution for two hours. The blot was then rinsed with blot solution three times for 15 minutes and incubated for 1 hr in blot solution with 2 μCi I^125 streptavidin (Amersham). The blots were rinsed with blot solution until the waste wash was down to background. The blot was then exposed to film at —80° C. overnight. In the case of one-dimensional SDS-PAGE Western blots (FIGS. 17, 19 and 20) the isoelectric focusing step was omitted. When human sera was used to probe the Western blots (FIGS. 17 and 20), 10% human plasma in 1% milk in blot solution was incubated overnight with the blot prior to using as second antibody biotinylated goat anti-human IgE.

[2] = system: rabbit antisera directed against an Amb a II sequence (amino acid 326-338; RAE 50. K); assay: Western blot of recombinant proteins with monospecific anti-peptide antisera against RAE 50. K; details: Western blots, data not shown
Text: Proteins or peptides encoded by the cDNA of the present invention can be used, for example, as “purified” allergens. Such purified allergens are useful in the standardization of allergen extracts which are key reagents for the diagnosis and treatment of ragweed allergy. Furthermore, by using peptides based on the sequences listed in FIGS. 2 through 16, anti-peptide antisera or monoclonal antibodies can be made using standard methods. Such reagents can be specifically directed against individual isoforms of Amb a I or Amb a II (i.e., directed against divergent regions/epitopes of the molecule) or can be specific for all forms Amb a I or Amb a II (i.e, directed against common sequences/epitopes). These sera or monoclonal antibodies, directed against Amb a I or Amb a II, can be used to standardize allergen extracts. One such monospecific anti-peptide antisera has already been successfully produced.

[3] = system: rabbit anti-Amb a I polyclonal antibody; assay: Western blot with rabbit anti-Amb a I polyclonal antibody (FIG. 17)
Text: As is also represented in FIG. 1A, rabbit polyclonal antibodies were produced using the King Antigen E preparation. […] These antibodies were also shown, using a similar technique, to bind to the affinity purified Amb a I described previously (FIG. 17).
It is clear from the antibody reactivity that the 4B5/B7 affinity purified Amb a I has a recognition pattern similar to that of the Amb a I of pollen and skin test reagent with both rabbit polyclonal anti-Amb a I and JB1E3-4 anti-Amb a I monoclonal antibody (FIG. 17).
Affinity purified Amb a I was electrophoresed, Western transferred (Towbin et al., Proc. Natl. Acad. Sci. USA, 76:4350 (1979)) and probed with a variety of antibodies, including IgE from an allergic patient (FIG. 17). In pollen extract Amb a I is not only present as an intact 38-KD species, but also characterized by its component 26KD alpha chains and 12-KD beta chains which are formed by enzymatic cleavage. The intact 38-KD species and the alpha chain are clearly detected using rabbit anti-Amb a I, polyclonal affinity purified anti-RAE 16 and monoclonal anti-Amb a I JBIE3-4 (FIG. 17); RAE 16 peptide has the sequence RTDKDLLENGAIC derived from amino-acids 343-353 of Amb a IB, FIG. 16). […]

Molecule	Binding by goat anti-Amb a I antibody (in words) [1]	Binding by rabbit anti-RAE 50. K antisera (in words) [2]	Binding by rabbit anti-Amb a I polyclonal antibodies (in words) [3]
Amb a IA: full-length recombinant Amb a IA, amino acid 10-398, E. coli expressed, used as crude bacterial lysate (protein) LYFTLALVTLLQPVRSAEDLQEILPVNETRRLTTSGAYNIIDGCWRGKADWAENRKALADCAQGFGKGTVGGKDGDIYTVTSELDDDVANPKEGTLRFGAAQNRPLWIIFERDMVIRLDKEMVVNSDKTIDGRGAKVEIINAGFTLNGVKNVIIHNINMHDVKVNPGGLIKSNDGPAAPRAGSDGDAISISGSSQIWIDHCSLSKSVDGLVDAKLGTTRLTVSNSLFTQHQFVLLFGAGDENIEDRGMLATVAFNTFTDNVDQRMPRCRHGFFQVVNNNYDKWGSYAIGGSASPTILSQGNRFCAPDERSKKNVLGRHGEAAAESMKWNWRTNKDVLENGAIFVASGVDPVLTPEQSAGMIPAEPGESALSLTSSAGVLSCQPGAPC	binds specifically	not	–
Amb a IC: E. coli expressed recombinant Amb a IC, used as crude bacterial lysate (protein) LYFTLALVALLQPVRSAEGVGEILPSVNETRSLQACEALNIIDKCWRGKADWENNRQALADCAQGFAKGTYGGKWGDVYTVTSNLDDDVANPKEGTLRFAAAQNRPLWIIFKNDMVINLNQELVVNSDKTIDGRGVKVEIINGGLTLMNVKNIIIHNINIHDVKVLPGGMIKSNDGPPILRQASDGDTINVAGSSQIWIDHCSLSKSFDGLVDVTLGSTHVTISNCKFTQQSKAILLGADDTHVQDKGMLATVAFNMFTDNVDQRMPRCRFGFFQVVNNNYDRWGTYAIGGSSAPTILCQGNRFLAPDDQIKKNVLARTGTGAAESMAWNWRSDKDLLENGAIFVTSGSDPVLTPVQSAGMIPAEPGEAAIKLTSSAGVFSCRPGAPC	binds specifically	not	–
affinity purified Amb a I: protein affinity purified from pollen extract with monoclonal antibody 4B5/B7 (protein) AEDLQEILPVNETRRLTTSGAYNIIDGCWRGKADWAENRKALADCAQGFGKGTVGGKDGDIYTVTSELDDDVANPKEGTLRFGAAQNRPLWIIFERDMVIRLDKEMVVNSDKTIDGRGAKVEIINAGFTLNGVKNVIIHNINMHDVKVNPGGLIKSNDGPAAPRAGSDGDAISISGSSQIWIDHCSLSKSVDGLVDAKLGTTRLTVSNSLFTQHQFVLLFGAGDENIEDRGMLATVAFNTFTDNVDQRMPRCRHGFFQVVNNNYDKWGSYAIGGSASPTILSQGNRFCAPDERSKKNVLGRHGEAAAESMKWNWRTNKDVLENGAIFVASGVDPVLTPEQSAGMIPAEPGESALSLTSSAGVLSCQPGAPC	–	–	bind
Amb a IB: E. coli expressed recombinant Amb a IB, used as crude bacterial lysate (protein) LYFTLALVTLLQPVRSAEDVEEFLPSANETRRSLKACEAHNIIDKCWRCKADWANNRQALADCAQGFAKGTYGGKHGDVYTVTSDKDDDVANPKEGTLRFAAAQNRPLWIIFKRNMVIHLNQELVVNSDKTIDGRGVKVNIVNAGLTLMNVKNIIIHNINIHDIKVCPGGMIKSNDGPPILRQQSDGDAINVAGSSQIWIDHCSLSKASDGLLDITLGSSHVTVSNCKFTQHQFVLLLGADDTHYQDKGMLATVAFNMFTDHVDQRMPRCRFGFFQVVNNNYDRWGTYAIGGSSAPTILSQGNRFFAPDDIIKKNVLARTGTGNAESMSWNWRTDRDLLENGAIFLPSGSDPVLTPEQKAGMIPAEPGEAVLRLTSSAGVLSCHQGAPC	binds specifically	not	–
